B1: TRIM9 (parent)
chain: PRNSCITCPQCHRSLILDDRGLRG

Variants of: B1
Assay: protein stability index of a GFP-peptide fusion (GPS, HEK-293T) (PSI 1-6); higher = more stable
Details: c terminus: a fixed tail appended
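Note: lentivirally expressed fusions sorted by FACS into six bins by GFP to DsRed ratio, PSI derived from sequencing read proportions per bin multiplied by bin number.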

Variant | protein stability index
PRPSCITCPQCHRSLILDDRGLRG | 1.49
PRLSCITCPQCHRSLILDDRGLRG | 2.52
PRASCITCPQCHRSLILDDRGLRG | 2.36
PRKSCITCPQCHRSLILDDRGLRG | 1.94
PRMSCITCPQCHRSLILDDRGLRG | 1.6
PRWSCITCPQCHRSLILDDRGLRG | 1.62
PRTSCITCPQCHRSLILDDRGLRG | 1.78
PRFSCITCPQCHRSLILDDRGLRG | 1.96
PRISCITCPQCHRSLILDDRGLRG | 1.92
PRHSCITCPQCHRSLILDDRGLRG | 2.53
PRGSCITCPQCHRSLILDDRGLRG | 1.52
PRDSCITCPQCHRSLILDDRGLRG | 2.34
PRYSCITCPQCHRSLILDDRGLRG | 1.85
PRSSCITCPQCHRSLILDDRGLRG | 2.5
PRVSCITCPQCHRSLILDDRGLRG | 1.83
PRESCITCPQCHRSLILDDRGLRG | 2.16
PRCSCITCPQCHRSLILDDRGLRG | 1.8
PRRSCITCPQCHRSLILDDRGLRG | 2.03
PKNSCITCPQCHRSLILDDRGLRG | 2.19
PPNSCITCPQCHRSLILDDRGLRG | 2.92
PANSCITCPQCHRSLILDDRGLRG | 1.58
PFNSCITCPQCHRSLILDDRGLRG | 1.89
PTNSCITCPQCHRSLILDDRGLRG | 2.56
PQNSCITCPQCHRSLILDDRGLRG | 2.52

Variant | protein stability index
PWNSCITCPQCHRSLILDDRGLRG | 2.14
PLNSCITCPQCHRSLILDDRGLRG | 2.24
PENSCITCPQCHRSLILDDRGLRG | 2.71
PINSCITCPQCHRSLILDDRGLRG | 2.64
PYNSCITCPQCHRSLILDDRGLRG | 3.02
PGNSCITCPQCHRSLILDDRGLRG | 2.82
PHNSCITCPQCHRSLILDDRGLRG | 2.29
PMNSCITCPQCHRSLILDDRGLRG | 2.16
PCNSCITCPQCHRSLILDDRGLRG | 1.74
PNNSCITCPQCHRSLILDDRGLRG | 2.44
PSNSCITCPQCHRSLILDDRGLRG | 1.94
PVNSCITCPQCHRSLILDDRGLRG | 1.92
PDNSCITCPQCHRSLILDDRGLRG | 2.34
PRNSGITCPQCHRSLILDDRGLRG | 2.75
PRNSTITCPQCHRSLILDDRGLRG | 2.02
PRNSVITCPQCHRSLILDDRGLRG | 2.8
PRNSEITCPQCHRSLILDDRGLRG | 2.67
PRNSRITCPQCHRSLILDDRGLRG | 3.09
PRNSFITCPQCHRSLILDDRGLRG | 2.08
PRNSLITCPQCHRSLILDDRGLRG | 2.29
PRNSNITCPQCHRSLILDDRGLRG | 1.99
PRNSHITCPQCHRSLILDDRGLRG | 1.77
PRNSKITCPQCHRSLILDDRGLRG | 1.71
PRNSSITCPQCHRSLILDDRGLRG | 2.42

Variant | protein stability index
PRNSDITCPQCHRSLILDDRGLRG | 2.11
PRNSIITCPQCHRSLILDDRGLRG | 2.34
PRNSPITCPQCHRSLILDDRGLRG | 2.49
PRNSQITCPQCHRSLILDDRGLRG | 1.92
PRNSYITCPQCHRSLILDDRGLRG | 1.87
PRNSAITCPQCHRSLILDDRGLRG | 1.67
PRNSCCTCPQCHRSLILDDRGLRG | 2.26
PRNSCETCPQCHRSLILDDRGLRG | 2.02
PRNSCFTCPQCHRSLILDDRGLRG | 1.66
PRNSCDTCPQCHRSLILDDRGLRG | 2.15
PRNSCATCPQCHRSLILDDRGLRG | 1.48
CRNSCITCPQCHRSLILDDRGLRG | 2.61
KRNSCITCPQCHRSLILDDRGLRG | 2.48
TRNSCITCPQCHRSLILDDRGLRG | 1.97
HRNSCITCPQCHRSLILDDRGLRG | 2.47
MRNSCITCPQCHRSLILDDRGLRG | 1.76
VRNSCITCPQCHRSLILDDRGLRG | 2.46
QRNSCITCPQCHRSLILDDRGLRG | 1.83
ARNSCITCPQCHRSLILDDRGLRG | 1.82
WRNSCITCPQCHRSLILDDRGLRG | 1.94
IRNSCITCPQCHRSLILDDRGLRG | 2.33
GRNSCITCPQCHRSLILDDRGLRG | 1.71
NRNSCITCPQCHRSLILDDRGLRG | 2.16
LRNSCITCPQCHRSLILDDRGLRG | 2.29

Variant | protein stability index
RRNSCITCPQCHRSLILDDRGLRG | 2.28
ERNSCITCPQCHRSLILDDRGLRG | 3.1
SRNSCITCPQCHRSLILDDRGLRG | 2.61
YRNSCITCPQCHRSLILDDRGLRG | 2.04
DRNSCITCPQCHRSLILDDRGLRG | 2.4
PRNLCITCPQCHRSLILDDRGLRG | 2.37
PRNGCITCPQCHRSLILDDRGLRG | 1.76
PRNVCITCPQCHRSLILDDRGLRG | 2.27
PRNACITCPQCHRSLILDDRGLRG | 2
PRNTCITCPQCHRSLILDDRGLRG | 1.73
PRNYCITCPQCHRSLILDDRGLRG | 2.17
PRNFCITCPQCHRSLILDDRGLRG | 2.31
PRNWCITCPQCHRSLILDDRGLRG | 1.71
PRNHCITCPQCHRSLILDDRGLRG | 2.14
PRNQCITCPQCHRSLILDDRGLRG | 1.85
PRNDCITCPQCHRSLILDDRGLRG | 2.29
PRNMCITCPQCHRSLILDDRGLRG | 2.89
PRNNCITCPQCHRSLILDDRGLRG | 1.8
PRNPCITCPQCHRSLILDDRGLRG | 2.1
PRNECITCPQCHRSLILDDRGLRG | 2.2
PRNKCITCPQCHRSLILDDRGLRG | 1.65
PRNICITCPQCHRSLILDDRGLRG | 2.52
